In patent US20060264369, “Aptamers to von Willebrand Factor and their use as thrombotic disease therapeutics” (published 2006):

Tests used:
[1] = target: T1, von Willebrand factor full length (Homo sapiens, UniProt P04275 SEQ:764-2813); experiment: filter; 25.6% bound at 100 nM vWF; conditions: tags: Calbiochem 681300; label: 5'-32P
Method: (§1) For KD determination, chemically synthesized aptamers were purified using denaturing polyacrylamide gel electrophoresis, 5′end labeled with γ-³²P ATP and were tested for direct binding to full length human vWF (Calbiochem Cat.# 681300, La Jolla, Calif.). An 8 point protein titration was used in the dot blot binding assay (100 nM, 30 nM, 10 nM, 3 nM, 1 nM, 300 pM, 100 pM, 0 pM)) in 1× Dulbecco's PBS containing […] (final volume of 50 uL) for 30 minutes at room temperature. KD values were calculated by fitting the equation y=(max/(1+K/protein))+yint using KaleidaGraph (KaleidaGraph v. 3.51, Synergy Software).

[2] = target: T1, von Willebrand factor full length; experiment: filter; 33% bound at 100 nM vWF; conditions: tags: Calbiochem 681300; label: 5'-32P
Method: as §1

[3] = target: T1, von Willebrand factor full length; experiment: filter; 17% bound at 100 nM vWF; conditions: tags: Calbiochem 681300; label: 5'-32P
Method: as §1

[4] = target: T1, von Willebrand factor full length; experiment: filter; 21% bound at 100 nM vWF; conditions: tags: Calbiochem 681300; label: 5'-32P
Method: as §1

[5] = target: T1, von Willebrand factor full length; experiment: filter; 46% bound at 100 nM vWF; conditions: tags: Calbiochem 681300; label: 5'-32P
Method: as §1

[6] = target: T1, von Willebrand factor full length; experiment: filter; 50% bound at 100 nM vWF; conditions: tags: Calbiochem 681300; label: 5'-32P
Method: as §1

[7] = target: T1, von Willebrand factor full length; experiment: filter; 25% bound at 100 nM vWF; conditions: tags: Calbiochem 681300; label: 5'-32P
Method: as §1

[8] = target: T1, von Willebrand factor full length; experiment: filter; only 6% bound at 100 nM vWF; conditions: tags: Calbiochem 681300; label: 5'-32P
Method: as §1

[9] = target: T1, von Willebrand factor full length; experiment: filter; 45% bound at 100 nM; conditions: tags: Calbiochem 681300
Method: as §1

[10] = target: T1, von Willebrand factor full length; experiment: filter; 47% bound at 100 nM vWF; conditions: tags: Calbiochem 681300; label: 5'-32P
Method: as §1

[11] = target: T1, von Willebrand factor full length; experiment: filter; 39% bound at 100 nM vWF; conditions: tags: Calbiochem 681300; label: 5'-32P
Method: as §1

[12] = target: T1, von Willebrand factor full length; experiment: filter; only 2% bound at 100 nM vWF; conditions: tags: Calbiochem 681300; label: 5'-32P
Method: as §1

[13] = target: T1, von Willebrand factor full length; experiment: filter; 49% bound at 100 nM; conditions: tags: Calbiochem 681300
Method: as §1

[14] = target: T1, von Willebrand factor full length; experiment: filter; 16% bound at 100 nM vWF; conditions: tags: Calbiochem 681300; label: 5'-32P
Method: as §1

[15] = target: T1, von Willebrand factor full length; experiment: filter; 18% bound at 100 nM vWF; conditions: tags: Calbiochem 681300; label: 5'-32P
Method: as §1

[16] = target: T1, von Willebrand factor full length; experiment: filter; 39% bound at 100 nM; conditions: tags: Calbiochem 681300
Method: as §1

[17] = target: T1, von Willebrand factor full length; experiment: filter; 56% bound at 100 nM vWF; conditions: tags: Calbiochem 681300; label: 5'-32P
Method: as §1

[18] = target: T1, von Willebrand factor full length; experiment: filter; 28% bound at 100 nM vWF; conditions: tags: Calbiochem 681300; label: 5'-32P
Method: as §1

[19] = target: T1, von Willebrand factor full length; experiment: filter; 37% bound at 100 nM; conditions: tags: Calbiochem 681300
Method: as §1

[20] = target: T1, von Willebrand factor full length; experiment: filter; 37% bound at 100 nM vWF; conditions: tags: Calbiochem 681300; label: 5'-32P
Method: as §1

[21] = target: T1, von Willebrand factor full length; experiment: filter; 9% bound at 100 nM vWF; conditions: tags: Calbiochem 681300; label: 5'-32P
Method: as §1

[22] = target: T1, von Willebrand factor full length; experiment: filter; 23% bound at 100 nM vWF; conditions: tags: Calbiochem 681300; label: 5'-32P
Method: as §1

[23] = target: T1, von Willebrand factor full length; experiment: filter; 36% bound at 100 nM vWF; conditions: tags: Calbiochem 681300; label: 5'-32P
Method: as §1

[24] = target: T1, von Willebrand factor full length; experiment: filter; 43% bound at 100 nM vWF; conditions: tags: Calbiochem 681300; label: 5'-32P
Method: as §1

[25] = target: T1, von Willebrand factor full length; experiment: filter; no binding; conditions: tags: Calbiochem 681300; label: 5'-32P
[26] = target: T1, von Willebrand factor full length; experiment: filter; no binding; conditions: tags: Calbiochem 681300; label: 5'-32P; remark: listed apart in the source
Method: as §1

[27] = target: T1, von Willebrand factor full length; experiment: filter; DPBS, 0.1 mg/mL BSA, RT; conditions: tags: Calbiochem 681300; label: 5'-32P
Method: Minimers were tested for direct binding to full length human vWF (SEQ ID NO 7), and rabbit vWF A1 domain (SEQ ID NO 6) using a 9 point protein titration (100 nM, 30 nM, 10 nM, 3 nM, 1 nM, 300 pM, 100 pM, 30 pM, 0 pM) (see FIG. 6) in 1×Dulbecco's PBS containing 0.1 mg/mL BSA (final volume of 50 uL) for 30 minutes at room temperature and then applied to a nitrocellulose and nylon filter sandwich in a dot blot apparatus (Schleicher and Schuell, Keene, N.H.). KD values were calculated by fitting the equation y=(max/(1+K/protein))+yint using KaleidaGraph (KaleidaGraph v. 3.51, Synergy Software).

[28] = target: T1, von Willebrand factor full length; experiment: filter; 48.3% bound at 100 nM vWF; conditions: tags: Calbiochem 681300; label: 5'-32P
Method: as §1

Binder: CGGCCGTGCGGTGCCUCCGUCACUUUGUGCAGUGCCG (mixed, 2'-OMe/deoxy composite, single PS, 3'-idT) [ARC1534]
- Kd [1]: 62.8 nM

Binder: GGCGUGCAGUGCCUUCGGCCGTGCGGTGCCUCCGUCACGCC (mixed, 2'-OMe/deoxy composite as printed in Table 22, 3'-idT) [ARC1342]
- Kd [2]: 15.6 nM

Binder: GGCGUGCAGUGCCUUCGGCCGTGCGGTGCCUCCGUCACGCC (mixed, 2'-OMe/deoxy composite with multiple PS as printed in Table 22, 3'-idT) [ARC1344]
- Kd [3]: 4.8 nM

Binder: GGCGUGCAGUGCCUUCGGCCGTGCGGTGCCUCCGUCACGCC (mixed, 2'-OMe/deoxy composite with 4 PS as printed in Table 22, 3'-idT) [ARC1343]
- Kd [4]: 23.9 nM

Binder: GGCGTGCAGTGCCTTCGGCCGTGCGGTGCCTCCGTCACGCC (ssDNA, single PS between G21 and T22, 3'-idT) [ARC1759]
- Kd [5]: 0.7 nM

Binder: GGCGUGCAGTGCCTTCGGCCGTGCGGTGCCTCCGTCACGCC (ssDNA, 2'-OMe U5, 3'-idT) [ARC1198]
- Kd [6]: 0.9 nM

Binder: GGCGUGCAGTGCCTTCGGCCGTGCGGTGCCTCCGTCACGCC (mixed, 2'-OMe at 1-5 and 37-41, 3'-idT) [ARC1338]
- Kd [4]: 7.4 nM

Binder: GGCGTGCAGTGCCTTCGGCCGTGCGGTGCCTCCGTCACGCC (ssDNA, 2'-OMe C33, 3'-idT) [ARC1226]
- Kd [7]: 12 nM

Binder: GGCGTGCAGTGCCTTCGGCCGTGCGGTGCCTCCGTCACGCC (ssDNA, 2'-OMe A8, 3'-idT) [ARC1201]
- Kd [8]: 0.9 nM

Binder: GGCGTGCAGTGCCTUCGGCCGTGCGGTGCCTCCGTCACGCC (ssDNA, 2'-OMe at 15 (mU); 3'-idT) [ARC1208]
- Kd [9]: 2 nM

Binder: GGCGTGCAGTGCCTTCGGCCGTGCGGTGCCUCCGTCACGCC (ssDNA, 2'-OMe U31, 3'-idT) [ARC1224]
- Kd [10]: 0.5 nM

Binder: GGCGTGCAGUGCCTTCGGCCGTGCGGTGCCTCCGUCACGCC (mixed, 2'-OMe at 9, 10, 21, 23, 34-36, 3'-idT) [ARC1339]
- Kd [11]: 2.4 nM

Binder: GGCGTGCAGTGCCTTCGGCCGTGCGGTGCCTCCGTCACGCC (ssDNA, 2'-OMe G25, 3'-idT) [ARC1218]
- Kd [12]: 32 nM

Binder: GGCGTGCAGTGCCTTCGGCCGTGCGGTGCCTCCGTCACGCC (ssDNA, 2'-OMe at 17; 3'-idT) [ARC1210]
- Kd [13]: 2 nM

Binder: GGCGTGCAGTGCCTTCGGCCGTGCGGTGCCTCCGTCACGCC (ssDNA, 2'-OMe C32, 3'-idT) [ARC1225]
- Kd [14]: 11 nM

Binder: GGCGTGCAGTGCCTTCGGCCGTGCGGTGCCTCCGTCACGCC (ssDNA, 2'-OMe C24, 3'-idT) [ARC1217]
- Kd [15]: 14 nM

Binder: GGCGTGCAGTGCCTTCGGCCGTGCGGTGCCTCCGTCACGCC (ssDNA, 2'-OMe at 40; 3'-idT) [ARC1233]
- Kd [16]: 2 nM

Binder: GGCGTGCAGTGCCTTCGGCCGTGCGGTGCCTCCGTCACGCC (ssDNA, 2'-OMe G9, 3'-idT) [ARC1202]
- Kd [17]: 0.4 nM

Binder: GGCGTGCAGTGCCTTCGGCCGTGCGGTGCCTCCGTCACGCC (ssDNA, 2'-OMe G6, 3'-idT) [ARC1199]
- Kd [18]: 19 nM

Binder: GGCGTGCAGTGCCTTCGGCCGTGCGGTGCCTCCGTCACGCC (ssDNA, 2'-OMe at 12,13,19; 3'-idT) [ARC1239]
- Kd [19]: 5 nM

Binder: GGCGTGCAGTGCCTTCGGCCGTGCGGTGCCTCCGTCACGCC (ssDNA, 2'-OMe at 19; 3'-idT) [ARC1212]
- Kd [13]: 2 nM

Binder: GGCGTGCAGTGCCTTCGGCCGTGCGGTGCCTCCGTCACGCC (ssDNA, 3'-idT) [ARC1172]
- Kd [20]: 2 nM

Binder: GGCGUGCAGTGCCTTCGGCCGTGCGGTGCCTCCGTCACGCC (mixed, 2'-OMe at 1-6 and 36-41, 3'-idT) [ARC1237]
- Kd [21]: 41 nM

Binder: GGCGTGCAGTGCCTTCGGCCGTGCGGTGCCTCCGTCACGCC (mixed, 2'-OMe G1 G2 G4 G6 A37 G39, 3'-idT) [ARC1235]
- Kd [22]: 13 nM

Binder: GGCGTGCAGTGCCTTCGGCCGTGCGGTGCCTCCGTCACGCC (ssDNA, 2'-OMe at 36; 3'-idT) [ARC1229]
- Kd [19]: 5 nM

Binder: GGCGTGCAGTGCCTTCGGCCGTGCGGTGCCTCCGTCACGCC (ssDNA) [ARC1115]
- Kd [23]: 2 nM

Binder: GGCGTGCAGTGCCTTCGGCCGTGCGGTGCCTCCGTCACGCC (ssDNA, 2'-OMe at 21; 3'-idT) [ARC1214]
- Kd [16]: 3 nM

Binder: GGCGTGCAGTGCCTTCGGCCGTGCGGTGCCTCCGTCACGCC (ssDNA, 2'-OMe at 11; 3'-idT) [ARC1204]
- Kd [9]: 2 nM

Binder: GGCGTGCAGTGCCTTCGGCCGTGCGGTGCCTCCGTCACGCC (ssDNA, 2'-OMe C7, 3'-idT) [ARC1200]
- Kd [7]: 5 nM

Binder: GGCGTGCAGTGCCTTCGGCCGTGCGGTGCCUCCGUCACGCC (mixed, 2'-OMe at 23, 28, 29, 31, 34-36, 3'-idT) [ARC1340]
- Kd [24]: 7.4 nM

Binder: ATGAGAGTGCTGGTGGATTGCTCAGGTCTGCTGGCTGCTTACTCTCAT (ssDNA) [ARC845]
- binding result [25]: no binding

Binder: GGCGUGCAGUGCUUCGCCGTGCGGTGCCUCCGUCACGCC (mixed, 2'-OMe/deoxy composite, 3'-idT) [ARC1347]
- binding result [26]: no binding

Binder: GGCGTGCAGTGCCTATTCTAGGCCGTGCGGTGCCTCCGTCACGCC (ssDNA, 3'-idT) [ARC1027]
- Kd [27]: 0.8 nM

Binder: CCGGCCGTGCGGTGCCUCCGUCACUUUGUGCAGUGCCGG (mixed, 2'-OMe/deoxy composite, single PS, 3'-idT) [ARC1535]
- Kd [28]: 27.1 nM

Binder: GCGUGCAGUGCUUCGCCGTGCGGTGCCUCCGUCACGC (mixed, 2'-OMe/deoxy composite, 3'-idT) [ARC1348]
- binding result [26]: no binding
